Holding throughout (test): cleavage_in_vitro
Data set [1] deals with T1, OMNI-50 TXTL (Ezakiella peruensis strain M6.X2).
T1 sequence: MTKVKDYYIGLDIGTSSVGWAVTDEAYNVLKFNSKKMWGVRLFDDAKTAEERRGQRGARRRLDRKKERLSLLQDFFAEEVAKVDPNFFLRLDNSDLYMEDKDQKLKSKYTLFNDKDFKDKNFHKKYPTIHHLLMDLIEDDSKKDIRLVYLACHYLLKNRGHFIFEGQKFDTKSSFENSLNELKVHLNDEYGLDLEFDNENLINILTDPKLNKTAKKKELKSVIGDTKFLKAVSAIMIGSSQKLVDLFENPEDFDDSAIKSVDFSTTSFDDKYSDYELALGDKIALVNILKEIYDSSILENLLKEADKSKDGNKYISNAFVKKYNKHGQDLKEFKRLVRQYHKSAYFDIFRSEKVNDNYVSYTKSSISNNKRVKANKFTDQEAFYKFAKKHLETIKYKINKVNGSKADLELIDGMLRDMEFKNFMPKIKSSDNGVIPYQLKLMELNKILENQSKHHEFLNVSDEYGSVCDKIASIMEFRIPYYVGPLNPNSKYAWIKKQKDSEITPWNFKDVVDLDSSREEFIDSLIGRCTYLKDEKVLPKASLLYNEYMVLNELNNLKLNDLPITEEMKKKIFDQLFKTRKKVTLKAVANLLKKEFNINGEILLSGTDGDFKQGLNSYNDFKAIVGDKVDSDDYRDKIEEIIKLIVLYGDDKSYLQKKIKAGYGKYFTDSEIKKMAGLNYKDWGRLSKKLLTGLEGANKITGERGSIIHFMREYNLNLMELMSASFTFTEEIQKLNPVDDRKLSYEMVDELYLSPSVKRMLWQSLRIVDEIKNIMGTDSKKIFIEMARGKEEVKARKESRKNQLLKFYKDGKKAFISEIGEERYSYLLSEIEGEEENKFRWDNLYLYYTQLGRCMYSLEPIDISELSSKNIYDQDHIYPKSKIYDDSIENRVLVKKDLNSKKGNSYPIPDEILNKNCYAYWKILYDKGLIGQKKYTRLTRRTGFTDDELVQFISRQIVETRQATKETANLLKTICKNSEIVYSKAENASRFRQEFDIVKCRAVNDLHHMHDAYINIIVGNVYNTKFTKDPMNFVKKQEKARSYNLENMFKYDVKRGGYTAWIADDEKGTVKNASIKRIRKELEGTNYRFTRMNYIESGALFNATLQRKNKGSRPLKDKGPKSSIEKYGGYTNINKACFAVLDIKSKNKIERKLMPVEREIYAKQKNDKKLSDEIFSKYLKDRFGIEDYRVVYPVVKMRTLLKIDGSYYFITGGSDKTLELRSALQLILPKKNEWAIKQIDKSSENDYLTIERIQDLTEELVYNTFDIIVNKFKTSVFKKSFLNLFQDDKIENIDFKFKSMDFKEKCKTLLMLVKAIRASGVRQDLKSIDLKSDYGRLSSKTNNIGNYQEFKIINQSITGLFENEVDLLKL
The note with it: PAM NGG.

Data set [2] concerns T2, OMNI-39 TXTL (Butyrivibrio sp. AC2005).
T2 sequence: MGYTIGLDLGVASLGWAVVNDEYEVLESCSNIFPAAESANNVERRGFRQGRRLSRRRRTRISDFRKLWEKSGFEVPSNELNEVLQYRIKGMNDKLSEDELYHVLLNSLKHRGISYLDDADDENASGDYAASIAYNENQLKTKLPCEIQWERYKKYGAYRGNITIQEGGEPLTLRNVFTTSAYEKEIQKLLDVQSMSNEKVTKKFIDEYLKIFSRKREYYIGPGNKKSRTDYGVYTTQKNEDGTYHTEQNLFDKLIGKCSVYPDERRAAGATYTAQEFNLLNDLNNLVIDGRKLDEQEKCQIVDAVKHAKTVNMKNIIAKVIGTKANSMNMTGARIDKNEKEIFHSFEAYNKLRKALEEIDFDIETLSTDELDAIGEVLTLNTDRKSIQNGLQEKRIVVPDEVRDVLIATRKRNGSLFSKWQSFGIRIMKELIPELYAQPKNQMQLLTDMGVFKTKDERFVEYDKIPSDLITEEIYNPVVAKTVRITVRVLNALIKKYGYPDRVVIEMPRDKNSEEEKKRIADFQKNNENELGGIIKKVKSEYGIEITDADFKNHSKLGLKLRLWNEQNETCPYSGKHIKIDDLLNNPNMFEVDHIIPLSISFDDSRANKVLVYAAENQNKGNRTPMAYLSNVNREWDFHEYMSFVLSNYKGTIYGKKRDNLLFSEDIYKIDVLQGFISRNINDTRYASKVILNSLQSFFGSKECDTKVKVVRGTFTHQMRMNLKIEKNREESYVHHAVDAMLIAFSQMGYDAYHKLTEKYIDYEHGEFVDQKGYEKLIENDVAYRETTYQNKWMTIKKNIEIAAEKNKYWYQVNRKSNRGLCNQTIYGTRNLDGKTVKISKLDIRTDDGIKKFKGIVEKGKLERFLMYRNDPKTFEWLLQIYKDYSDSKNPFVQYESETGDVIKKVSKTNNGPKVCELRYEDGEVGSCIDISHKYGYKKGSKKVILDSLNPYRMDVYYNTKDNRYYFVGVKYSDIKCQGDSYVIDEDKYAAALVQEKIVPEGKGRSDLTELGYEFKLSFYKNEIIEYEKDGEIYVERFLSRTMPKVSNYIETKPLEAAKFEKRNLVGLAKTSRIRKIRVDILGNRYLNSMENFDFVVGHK
The note with it: PAM NNGHAD general, NNGYAA specific.

In data set [3] the test system is T3, OMNI-53 TXTL (Clostridium sp. AF02-29).
T3 sequence: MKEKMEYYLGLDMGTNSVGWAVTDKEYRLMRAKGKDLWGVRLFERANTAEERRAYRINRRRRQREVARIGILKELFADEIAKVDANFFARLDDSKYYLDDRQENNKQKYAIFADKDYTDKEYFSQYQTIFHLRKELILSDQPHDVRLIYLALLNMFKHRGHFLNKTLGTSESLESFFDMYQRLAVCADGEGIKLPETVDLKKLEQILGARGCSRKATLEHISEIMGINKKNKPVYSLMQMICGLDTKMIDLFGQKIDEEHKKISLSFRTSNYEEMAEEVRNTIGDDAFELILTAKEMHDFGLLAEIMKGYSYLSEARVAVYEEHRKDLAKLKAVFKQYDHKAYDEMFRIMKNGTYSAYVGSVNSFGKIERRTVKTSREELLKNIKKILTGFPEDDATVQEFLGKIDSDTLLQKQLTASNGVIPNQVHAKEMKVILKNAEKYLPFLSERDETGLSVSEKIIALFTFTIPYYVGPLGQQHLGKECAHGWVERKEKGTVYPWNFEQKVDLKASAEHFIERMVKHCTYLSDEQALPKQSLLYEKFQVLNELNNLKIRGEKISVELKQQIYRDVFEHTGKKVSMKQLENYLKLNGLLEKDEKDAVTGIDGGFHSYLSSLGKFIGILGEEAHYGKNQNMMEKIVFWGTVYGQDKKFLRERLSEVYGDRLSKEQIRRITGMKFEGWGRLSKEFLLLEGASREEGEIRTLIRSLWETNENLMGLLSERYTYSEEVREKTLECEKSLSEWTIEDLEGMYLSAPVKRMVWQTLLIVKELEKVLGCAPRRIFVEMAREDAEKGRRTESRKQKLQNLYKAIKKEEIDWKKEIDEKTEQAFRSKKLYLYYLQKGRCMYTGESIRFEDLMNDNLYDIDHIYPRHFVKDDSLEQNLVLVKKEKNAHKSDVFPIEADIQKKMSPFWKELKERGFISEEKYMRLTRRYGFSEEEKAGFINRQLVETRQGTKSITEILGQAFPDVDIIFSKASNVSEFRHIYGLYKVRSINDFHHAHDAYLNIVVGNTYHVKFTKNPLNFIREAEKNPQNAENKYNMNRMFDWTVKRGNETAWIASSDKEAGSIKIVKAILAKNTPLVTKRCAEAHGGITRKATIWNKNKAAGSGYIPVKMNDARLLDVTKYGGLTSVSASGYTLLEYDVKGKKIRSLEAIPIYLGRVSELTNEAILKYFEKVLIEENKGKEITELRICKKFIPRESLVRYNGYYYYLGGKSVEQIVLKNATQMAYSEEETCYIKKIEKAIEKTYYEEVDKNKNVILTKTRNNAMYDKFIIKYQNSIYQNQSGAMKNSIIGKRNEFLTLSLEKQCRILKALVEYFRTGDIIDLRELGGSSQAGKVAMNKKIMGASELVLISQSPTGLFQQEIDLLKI
Particulars: PAM NRHR general, NAWA specific.

The test system of data set [4] is T4, OMNI-40 TXTL (Aliiarcobacter faecis).
T4 sequence: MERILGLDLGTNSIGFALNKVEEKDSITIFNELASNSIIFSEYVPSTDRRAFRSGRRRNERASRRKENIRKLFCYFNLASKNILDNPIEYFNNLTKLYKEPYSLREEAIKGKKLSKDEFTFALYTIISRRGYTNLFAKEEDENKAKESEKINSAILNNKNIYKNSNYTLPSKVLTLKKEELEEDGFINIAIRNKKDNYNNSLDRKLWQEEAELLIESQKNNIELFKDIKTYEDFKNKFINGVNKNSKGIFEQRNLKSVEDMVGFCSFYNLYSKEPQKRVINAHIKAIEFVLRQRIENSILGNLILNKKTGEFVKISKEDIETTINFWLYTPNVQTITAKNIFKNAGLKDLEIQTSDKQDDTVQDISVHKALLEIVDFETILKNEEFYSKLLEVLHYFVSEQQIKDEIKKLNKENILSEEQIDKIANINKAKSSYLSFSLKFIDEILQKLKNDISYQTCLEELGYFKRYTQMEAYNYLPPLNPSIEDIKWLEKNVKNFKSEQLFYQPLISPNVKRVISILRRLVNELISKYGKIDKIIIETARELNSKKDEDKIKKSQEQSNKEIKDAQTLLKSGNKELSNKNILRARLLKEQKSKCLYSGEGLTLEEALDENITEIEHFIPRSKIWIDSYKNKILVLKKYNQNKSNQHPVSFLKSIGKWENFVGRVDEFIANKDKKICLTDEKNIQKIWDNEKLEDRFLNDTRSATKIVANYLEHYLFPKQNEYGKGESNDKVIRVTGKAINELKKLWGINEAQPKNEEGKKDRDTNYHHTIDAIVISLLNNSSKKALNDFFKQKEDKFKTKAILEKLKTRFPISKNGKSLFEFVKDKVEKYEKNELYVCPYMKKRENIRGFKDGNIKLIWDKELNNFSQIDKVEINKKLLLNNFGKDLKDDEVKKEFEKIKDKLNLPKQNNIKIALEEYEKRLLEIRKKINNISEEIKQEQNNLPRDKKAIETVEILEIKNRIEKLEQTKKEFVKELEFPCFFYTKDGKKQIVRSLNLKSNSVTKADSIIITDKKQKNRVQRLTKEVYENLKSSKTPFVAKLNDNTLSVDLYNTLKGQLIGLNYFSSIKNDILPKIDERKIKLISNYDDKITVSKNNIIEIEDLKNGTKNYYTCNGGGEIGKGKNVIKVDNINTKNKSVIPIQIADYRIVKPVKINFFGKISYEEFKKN
Particulars: PAM NYGRV.

Turning to “GGAAGAGCAGAGCCUUGGUCUCGUUUGAGAGUUAUGUAAGAAAUUACAUGACGAGUUCAAAUAAAAAUUUAUUCAAACCGCCUAUUUAUAGGCCGCAGAUGUUCUGCAUUAUGCUUGCUAUUGCAAGCUUUUUU / GGAAGAGCAGAGCCTTGGTCTCNNNNNNNN / NNNNNNNNGAGACCAAGGCTCTGCTCTTCC [T2 sgRNA V2 OMNI-50 ; T2 protospacer 8N PAM library]”, in data set [1], the activity (1-depletion score) was 0.98.
On to “GGAAGAGCAGAGCCUUGGUCUCGUUUUAGUACCUAGAGAAAGAAAUUUCUUUAGACCUACUAAAAUAAGGCUUUAUGCCGAGAUUAAAGGAUGCCGACGGGCAUCCUUUUUU / GGAAGAGCAGAGCCTTGGTCTCNNNNNNNN / NNNNNNNNGAGACCAAGGCTCTGCTCTTCC [T2 sgRNA V2 OMNI-39 ; T2 protospacer 8N PAM library]”, for which, in data set [2], the activity (1-depletion score) is 0.95.
In turn, “GGAAGAGCAGAGCCUUGGUCUCGUUUGAGAACCAUGUAAGAAAUUACAUGGUGAGUGCAAAUAAGGAUUAUCCGAAAUUGUAUGCCCGCAUUGUGCGGCAAUAAAAAGGCUCGAAAGAGUCUUUUU / GGAAGAGCAGAGCCTTGGTCTCNNNNNNNN / NNNNNNNNGAGACCAAGGCTCTGCTCTTCC [T2 sgRNA V2 OMNI-53 ; T2 protospacer 8N PAM library]” gave an activity (1-depletion score) in data set [3] of 0.97.
For the sequence “GGAAGAGCAGAGCCUUGGUCUCGUUUUGUUACCAUAUGAUUGAAAAUUUAUAUGACCUAACAAAACAAGGGUUUAUCCCGGACUCGGCUCUUCGGAGCCUUUUU / GGAAGAGCAGAGCCTTGGTCTCNNNNNNNN / NNNNNNNNGAGACCAAGGCTCTGCTCTTCC [T2 sgRNA V2 OMNI-40 ; T2 protospacer 8N PAM library]”, the activity (1-depletion score) in data set [4] was 0.97.

For the origin of these results see patent US20210130804.
